Measurements published in article PMC5422739.

B1: histidine tagged HTE20 (domain or fragment)
chain: GIPGAAVPGVVSPEAAAKAAAKAAKYGARPGVGVGGIPTYGVGAGGFPGFGVGVG
B2: HTE20 (20th exon of human tropoelastin) (domain or fragment)
chain: B1 chain

Assays:
[1] = target: GST tagged LigB4 (amino acids 307–403 in LigB) (L. interrogans serovar Pomona); assay: ELISA; competitive; 5 μM GST-LigB4 or GST-LigB12 pre-incubated 1 h with HTE17-20, HTE20N or HTE20C (10 to 0.156 μM), then added to WI-38 cell monolayers at 37°C; HRP anti-GST
[2] = target: GST tagged LigB12 (amino acids 1,047–1,119 in LigB) (L. interrogans serovar Pomona); assay: as above
[3] = target: tag free LigB12 (amino acids 1,047–1,119 in LigB) (L. interrogans serovar Pomona); assay: SPR; Biacore 3000; tag free LigB12 immobilised on CM5 (about 1,000 RU); HTE truncates 0 to 5 μM injected in PBS at 30 μL/min, 25°C; 1:1 Langmuir model
[4] = target: LigA on the surface of L. biflexa serovar Patoc ligA
[5] = target: tag free LigB12 (amino acids 1,047–1,119 in LigB) (L. interrogans serovar Pomona); assay: other fluorescence titration; intrinsic tryptophan fluorescence of LigB12 (2 μM), excitation 295 nm, read at 315 nm, 25°C, PBS; HTE20 or HTE20N titrated 10 to 0.625 μM
[6] = target: tag-free LigB12 mutant E1088A (L. interrogans serovar Pomona); assay: ELISA; tag-free LigB12 wild type or point mutants coated (1 μM/well); His tagged HTE20 or HTE20N titrated 0 to 10 μM; anti-His detection
[7] = target: tag-free LigB12 mutant D1066A (L. interrogans serovar Pomona); assay: as above
[8] = target: tag-free LigB12 mutant D1061N (L. interrogans serovar Pomona); assay: as above
[9] = target: tag-free LigB12 mutant F1054A (L. interrogans serovar Pomona); assay: as above
[10] = target: LigB12-5-12 chimera (L. interrogans serovar Pomona); assay: ELISA; tag-free LigB5/LigB12 and LigB7/LigB10 chimeras and wild-type domains coated (1 μM/well); 5 μM histidine tagged HTE17-20, HTE20 or HTE20N applied; anti-His detection
[11] = target: LigB12-12-5 chimera (L. interrogans serovar Pomona); assay: as above

Binder | percent decrease of LigB4 binding to WI-38 cells at the highest concentration [1] [%] | percent decrease of LigB12 binding to WI-38 cells at the highest concentration [2] [%] | Kd [3] [nM] | koff [3] [s⁻¹] | kon [3] [M⁻¹ s⁻¹] | inhibition of the adhesion of LigA-expressing L. biflexa (Patoc ligA) to WI-38 cells after pre-incubation with HTE20N, 10 to 0.156 μM; ELISA with hamster anti-L. biflexa sera [4] [%] | Kd [5] [nM] | Kd [6] [nM] | percent of wild-type LigB12 binding [7] [%] | percent of wild-type LigB12 binding [8] [%] | percent of wild-type LigB12 binding [9] [%] | percent of wild-type LigB12 binding [10] [%] | percent of wild-type LigB12 binding [11] [%]
GIPGAAVPGVVSPEAAAKAAAKAAKYG (domain or fragment) [HTE20N (the first 27 residues of HTE20, amino acids 358–384 of HTE)] | 54 | 51 | 780 | 0.0021 | 2700 | 58 | 820 | – | – | – | – | – | –
B1 | – | – | – | – | – | – | – | 870 | 26 | 32 | 15 | 80 | 90
GIPGAAVPGVVSPEAAAKAAAKAAKYG (domain or fragment) [histidine tagged HTE20N] | – | – | – | – | – | – | – | 870 | 26 | 32 | 15 | 80 | 90
B2 | – | – | 940 | 0.0032 | 3400 | – | 970 | – | – | – | – | – | –
